In patent US11160869B2 (priority 2019, dated 2021):

Tested on: IL-1Ra
Experiment: Systemic IL-1Ra in non-inflamed mice (ELISA MSD)
Assay type: in vivo
Settings: construct 10 mg/kg; rhIL-10 3 mg/kg; oral

B1: IL-10 delivery construct: recombinant homodimeric fusion protein: N-terminal methionine, cholix386 domain, polyGlySer spacer, recombinant human IL-10 (protein)
chain: MVEEALNIFDECRSPCSLTPEPGKPIQSKLSIPSDVVLDEGVLYYSMTINDEQNDIKDEDKGESIITIGEFATVRATRHYVNQDAPFGVIHLDITTENGTKTYSYNRKEGEFAINWLVPIGEDSPASIKISVDELDQQRNIIEVPKLYSIDLDNQTLEQWKTQGNVSFSVTRPEHNIAISWPSVSYKAAQKEGSRHKRWAHWHTGLALCWLVPMDAIYNYITQQNCTLGDNWFGGSYETVAGTPKVITVKQGIEQKPVEQRIHFSKGNAMSALAAHRVCGVPLETLARSRKPRDLTDDLSCAYQAQNIVSLFVATRILFSHLDSVFTLNLDEQEPEVAERLSDLRRINENNPGMVTQVLTVARQIYNDYVTHHPGLTPEQTSAGAQAGGGGSGGGGSGGGGSPGQGTQSENSCTHFPGNLPNMLRDLRDAFSRVKTFFQMKDQLDNLLLKESLLEDFKGYLGCQALSEMIQFYLEEVMPQAENQDPDIKAHVNSLGENLKTLRLRLRRCHRFLPCENKSKAVEQVKNAFNKLQEKGIYKAMSEFDIFINYIEAYMTMKIRN
modifications: homodimer
- increase of systemic IL-1Ra: about 3 fold
